From patent US20210347895A1 (IMMUNOME, published 2021) come the findings set out here.

Experiment [1] concerns the target T1, recombinant PD-L1 (UniProt Q9NZQ7 19-238).
T1 construct: also called Programmed Death Ligand-1
The experiment in a line: dot blot; recombinant PD-L1 spotted at 4, 10 and 40 ng, probed with the antibody.
Description: Binding activity of anti-EPN1/anti-PD-L1 DVD-IgG bispecific antibodies. […] Purified recombinant proteins were spotted at three dose levels as depicted in FIG. 10, and probed with the four anti-EPN1/anti-PD-L1 bispecific antibodies. […] An antibody specific for a coat protein on the dengue virus served as a negative control.

Experiment [2] deals with T2, BSA (UniProt P02769 25-607).
T2 construct: also called BSA-coated beads
The experiment in a line: flow cytometry; BSA-coated latex beads, two-colour dot plot of IMM20059 against anti-CD63. A general note: A flow cytometer gives signals particle by particle.

T2 sequence (P02769 25-607 limits assumed): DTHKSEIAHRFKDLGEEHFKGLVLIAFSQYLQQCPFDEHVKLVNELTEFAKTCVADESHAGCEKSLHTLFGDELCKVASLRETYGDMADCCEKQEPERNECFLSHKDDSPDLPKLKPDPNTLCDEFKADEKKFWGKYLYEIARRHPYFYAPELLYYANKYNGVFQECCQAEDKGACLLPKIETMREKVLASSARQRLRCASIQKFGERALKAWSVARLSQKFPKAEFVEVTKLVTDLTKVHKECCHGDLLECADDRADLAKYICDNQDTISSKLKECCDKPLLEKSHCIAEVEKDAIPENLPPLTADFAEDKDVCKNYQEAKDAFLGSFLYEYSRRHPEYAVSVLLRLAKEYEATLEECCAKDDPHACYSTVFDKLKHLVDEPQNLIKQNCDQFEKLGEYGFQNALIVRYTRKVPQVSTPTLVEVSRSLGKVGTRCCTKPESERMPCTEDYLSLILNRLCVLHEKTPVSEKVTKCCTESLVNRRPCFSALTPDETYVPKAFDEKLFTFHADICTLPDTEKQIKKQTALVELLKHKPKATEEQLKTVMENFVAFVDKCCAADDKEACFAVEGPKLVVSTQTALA
T1 sequence (Q9NZQ7 19-238 limits assumed): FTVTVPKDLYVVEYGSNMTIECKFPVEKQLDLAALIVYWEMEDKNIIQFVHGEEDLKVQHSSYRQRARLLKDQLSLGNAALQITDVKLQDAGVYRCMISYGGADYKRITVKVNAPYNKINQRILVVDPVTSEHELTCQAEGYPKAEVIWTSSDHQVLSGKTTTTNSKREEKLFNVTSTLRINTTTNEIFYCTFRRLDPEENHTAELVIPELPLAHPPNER

B1: IMM20059 (antibody, V domains shown)
VH: EVQLVESGGGLVQPGGSLRLSCAASGFTFSIHSLNWVRQAPGKGLEWVSYISSNSTTIYYADSVKGRFTISRDNAKDSLYLQMNSLRDEDTAVYYCARDYYCTGGTCFFLPDLWGRGALVTVSS
VL: EIVLTQSPATLSLSPGERATLSCRASQNISNFLAWYQHKPGQAPRLLIYDASIRATGIPARFSGSGSGTDFSLTISSLEPEDFAVYFCQQRYNWLTFGGGTKVEIKR
notes: Recombinantly expressed human IgG1 with the PR045-2H11 VH and VL domains
Regarding B1, the binding result is reported as “no binding (tested: 40 ng)” in experiment [1] and “no binding” in experiment [2].
